Data published in US6570069B1, “Nucleic acids encoding plant inhibitors of apoptosis and transgenic cells and plants expressing them” (priority 2000, dated 2003).

T1: pro-caspase-9 (Homo sapiens, UniProt P55211)
T1 construct: host or cells: cell-free in vitro transcription/translation
T1 sequence (P55211 1-416): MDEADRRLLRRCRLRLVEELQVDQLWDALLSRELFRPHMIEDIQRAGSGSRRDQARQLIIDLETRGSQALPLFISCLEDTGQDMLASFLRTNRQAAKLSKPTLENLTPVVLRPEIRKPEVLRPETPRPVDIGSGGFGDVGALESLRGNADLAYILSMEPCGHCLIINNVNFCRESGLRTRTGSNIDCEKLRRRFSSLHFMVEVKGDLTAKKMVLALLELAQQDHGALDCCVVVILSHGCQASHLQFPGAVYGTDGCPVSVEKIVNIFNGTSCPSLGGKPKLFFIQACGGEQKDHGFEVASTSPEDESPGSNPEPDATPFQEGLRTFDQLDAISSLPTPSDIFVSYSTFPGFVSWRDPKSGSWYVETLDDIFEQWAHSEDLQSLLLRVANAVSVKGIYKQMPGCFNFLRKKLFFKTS

B1: SfIAP: cellular IAP cloned from Spodoptera frugiperda, protein of 377 amino acids (SEQ ID NO:3); GST-fusion when recombinant (protein, listed as Spodoptera frugiperda)
chain: MWSCSLPCWNTKKSGLQMDITKVASNGSSSTLTLFKSGSLEAKIRPLAPLMLPTPSYDSNAGSPSLSPSTPCSSSSFSIDKTDNHDTFGFSADTVDMRKEDERMKTFEKWPVSFLSGEQLARNGFYYLGRRDEARCAFCKVEIMRWVEGDDPAKDHQRWAPQCPFVRKLNGTAAADTGSSGQDECGARAAPSGTSPPRMAGPVHPRYASEAARLRSFKDWPRCMRQKPEELAEAGFFYTGQGDKTKCFYCDGGLKDWENHDVPWEQHARWFDRCAYVQLVKGREYVQKVISEACEVSASEAERDVAPARTAEPSPPAEAPENSVDDSKLCKICYAEERNVCFVPCGHVVACAKCALAADKCPMCRRTFQNAVRLYFS
modifications: GST fusion when recombinant; fall armyworm inhibitor of apoptosis protein (SfIAP)
B2: CpIAP: baculoviral (CpGV) inhibitor of apoptosis protein; complete ORF expressed myc-tagged or as GST-fusion (protein)
chain: MSDLRLEEVRLNTFEKWPVSFLSPETMAKNGFYYLGRSDEVRCAFCKVEIMRWKEGEDPAADHKKWAPQCPFVKGIDVCGSIVTTNNIQNTTTHDTIIGPAHPKYAHEAARVKSFHNWPRCMKQRPEQMADAGFFYTGYGDNTKCFYCDGGLKDWEPEDVPWEQHVRWFDRCAYVQLVKGRDYVQKVITEACVLPGENTTVSTAAPVSEPIPETKIEKEPQVEDSKLCKICYVEECIVCFVPCGHVVACAKCALSVDKCPMCRKIVTSVLKVYFS
modifications: left off: a dimerising Fc or GST
notes: complete ORF expressed myc-tagged or as GST-fusion

Key:
pro-caspase-9 = target: T1, pro-caspase-9; assay: GST pull-down binding of [35S]-pro-caspase-9; design: species or system mammalian; conditions: GST fusion protein on glutathione-Sepharose
Method: [^35S]Pro-caspase-9 was in vitro transcribed and translated in the presence of [^35S]L-methionine using TNT kit from Promega. Protein were desalted and exchanged into buffer (20 mM HEPES pH 7.5, 10 mM KCl, 1.5 mM MgCl2, 1 mM EDTA and 1 mM DTT) with Bio-spin P-6 columns (Bio-Rad). […] After incubation at 4 ° C. for 1 hour, beads were removed by centrifugation and washed twice with 0.5 ml of 50 mM Tris (pH 7.5), 150 mM NaCl, 2 mm DTT before analysis by SDS-PAGE and autoradiography.

[1] = system: Bax-induced apoptosis in HEK293 cells; assay: Bax-induced apoptosis in HEK293 cells (co-transfection, DAPI nuclear morphology); type: cell-based, human; conditions: IAP plasmid co-transfected with Bax into 293 cells; % apoptosis 24-36 hours later
Method: HEK293 and 293T cells were maintained in DMEM (Irvine Scientific) supplemented with 10% fetal bovine serum, 1 mM L-glutamine and antibiotics. 293 cells (10^6) were co-transfected using Superfect with 0.1 μg Green Fluoresence Protein (GFP) marker plasmid pEGFP (Clontech), 0.25 ug of either pcDNA3-Bax or pcDNA3-Fas, and 1.5 μg of either pcDNA3myc-SfIAP or pcDNA3myc-CpIAP. Alternatively, cells were co-transfected with 0.35 μg pcDNA3-caspase-9-Flag and 2.1 μg of either SfIAP or CpIAP. […] In some cases, lysates were prepared from transfected cells, normalized for total protein content, and analyzed by SDS-PAGE/immunoblotting as described (Deveraux, Q., et al., (1997) supra; Deveraux, Q. L., et al. (1998) supra; Roy, N. et al. (1997) supra; Takahashi, R., et al., (1998), supra.).
Baculoviral IAPs have been reported to protect mammalian cells from some apoptotic stimuli (Hawkins, C. J. et al., (1996) Proc. Natl. Acad. Sci. USA 93, 13786-13790; Hawkins, C. et al., (1998) Cell Death and Differentiation 5, 569-576; Uren, A. G. et al., (1996) Proc. Natl. Acad. Sci. USA 93, 4974-4978). Tests were performed to determine whether SfIAP is also capable of functioning as an apoptosis suppressor in a mammalian cell context. […]
Plasmids encoding various IAPs were co-transfected with Bax or Fas into 293 cells and % apoptosis was determined 24-36 hours later.

[2] = system: apoptosis induced by AcMNPV p35 mutant virus in Sf-21 cells; assay: Rescue of AcMNPV p35-deleted virus in Sf-21 cells (occlusion body formation); type: cell-based, Spodoptera frugiperda; conditions: plasmid co-transfected with AcMNPV p35 mutant viral DNA into Sf-21 cells; observed 72 hrs post-transfection
Method: Insect Sf-21 cells were maintained at 27° C. in Excell 401 media (JHR Bioscience) supplemented with 2.5% fetal bovine serum. vP35del, containing a deletion in the p35 gene, was propagated in TN-368 cells (Clem, R. J., et al., (1991) Science 254, 1388-1390). Plasmids encoding full-length or deletion mutants of SfIAP (1 μg) were co-transfected with 1 μg vP35del viral DNA into Sf-21 cells using Lipofectin from Gibco. Occlusion body formation was observed under light microscopy 3 days post-transfection.
SfIAP was tested to see if it also complements. p35-deficiency, preventing apoptosis by this mutant virus, thereby allowing its replication in insect cells. Plasmids containing full-length SfIAP or fragments of SfIAP comprising the two BIRs or the RING domain were co-transfected with AcMNPV p35 mutant viral DNA into Sf-21 cells. Cells were observed 72 hrs post-transfection. […] Thus, analogous to CpIAP and OpIAP, BIR and RING domains of SfIAP are required in combination for inhibition of apoptosis induced by AcMNPV p35 mutant virus.

| Molecule | binding to pro-caspase-9 (autoradiography) (pro-caspase-9) | suppression of Bax-induced apoptosis [1] | complementation of p35 deficiency (rescue of mutant virus replication, occlusion body formation) [2] |
| --- | --- | --- | --- |
| B1 | associated with pro-caspase-9 | inhibited Bax-induced apoptosis | complemented p35 deficiency |
| B2 | associated with pro-caspase-9 | inhibited Bax-induced apoptosis | – |
